“Also recorded” adds a separate entry of the source. Where two headings read alike, the source gives them in different places.
How the values were obtained:
[1] = target: T1, natriuretic peptide receptor on C3H10T1/2 cells (Mus musculus, UniProt Q6VVW5); assay: Biotrak enzyme immunoassay of cGMP elicited on C3H10T1/2 cells; type: cell-based
T1 construct: endogenous in cells; host or cells: C3H10T1/2 cells
T1 sequence (Q6VVW5 23-1047 limits assumed): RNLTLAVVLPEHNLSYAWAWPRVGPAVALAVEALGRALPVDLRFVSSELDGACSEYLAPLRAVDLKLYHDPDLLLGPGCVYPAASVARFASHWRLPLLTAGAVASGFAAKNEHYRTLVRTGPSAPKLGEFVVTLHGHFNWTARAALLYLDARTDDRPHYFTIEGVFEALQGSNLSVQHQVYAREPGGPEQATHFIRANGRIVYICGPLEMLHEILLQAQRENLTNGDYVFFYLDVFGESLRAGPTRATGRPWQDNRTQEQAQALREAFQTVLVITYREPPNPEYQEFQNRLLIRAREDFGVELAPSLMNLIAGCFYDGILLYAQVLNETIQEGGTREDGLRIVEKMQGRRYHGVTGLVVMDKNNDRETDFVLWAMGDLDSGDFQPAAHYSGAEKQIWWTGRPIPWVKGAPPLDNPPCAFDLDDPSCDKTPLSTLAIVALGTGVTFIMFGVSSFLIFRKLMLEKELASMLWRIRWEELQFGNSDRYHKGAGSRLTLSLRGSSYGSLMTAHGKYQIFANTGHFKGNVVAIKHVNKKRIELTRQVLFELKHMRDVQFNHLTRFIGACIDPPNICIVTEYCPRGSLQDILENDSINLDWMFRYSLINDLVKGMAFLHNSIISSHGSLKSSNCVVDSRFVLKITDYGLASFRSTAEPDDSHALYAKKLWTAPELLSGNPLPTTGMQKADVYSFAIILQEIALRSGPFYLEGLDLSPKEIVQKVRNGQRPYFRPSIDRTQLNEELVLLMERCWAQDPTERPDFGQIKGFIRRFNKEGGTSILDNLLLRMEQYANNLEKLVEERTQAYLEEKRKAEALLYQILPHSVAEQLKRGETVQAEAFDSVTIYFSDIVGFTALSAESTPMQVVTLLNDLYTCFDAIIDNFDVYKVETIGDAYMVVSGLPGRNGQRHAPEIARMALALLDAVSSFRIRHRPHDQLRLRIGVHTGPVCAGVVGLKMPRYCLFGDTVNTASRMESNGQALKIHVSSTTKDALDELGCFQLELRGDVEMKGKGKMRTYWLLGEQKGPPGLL
Description: All peptide variants were analyzed for activity using the Biotrak enzyme immunoassay (EIA, Amersham) that measures the amount of secondary messenger, cyclic GMP (cGMP), elicited after activation of the natriuretic peptide receptor by the peptide on C3H10T1/2 cells. Amino acid substitutions are marked in bold and underlined. The assay was performed for CNP and variants at a concentration of 10^−6 M. The values are given as the percent of relative binding compared to CNP, where CNP 1-22 and CNP 5-22 yield 100% binding.

[2] = system: femora derived from achondroplasia model mice (Ach369, Ach374) and wild type littermates; assay: Ex vivo femoral bone culture; details: for bone elongation / longitudinal growth in bone culture (in words): femora of Ach and wild type mice, versus vehicle or untreated; for Growth rate (days 0-3) / Growth rate (days 3-15): CNP treated femora, 40 units=1 mm
Description: Femora derived from achondroplasia model mice (Ach369 knock-in mice carry the Gly to Cys mutation at position 369, analogous to position 375 in humans or Ach374 knock-in mice that carry the Gly to Arg mutation at position 374, analogous to position 380 in humans) were dissected from P0 wild type, heterozygote and homozygote littermates and cultured in the presence of natriuretic peptides for 15 days.
Protocol for Bone Culture: Femoral bone cultures were performed by excising the hind limbs of mice. The limbs were carefully cleaned from the surrounding tissue (skin and muscles) and the femora exposed. The femora were removed and further cleared from tissue remains and ligaments. The femora were measured for their initial length, using a binocular with an eyepiece micrometer ruler. The bones were grown in 1 ml of medium (α-MEM supplemented with penicillin (100 units/ml), streptomycin (0.1 mg/ml), nystatin (12.5 units/ml), BSA (0.2%), β-glycerophosphate (1 mM) and freshly prepared ascorbic acid (50 μg/ml)) with varying concentrations of NPs or CNP variants in a 24 well tissue culture dish. The bones were cultured for 15 days while measurements of bone length and medium replacement were performed every three days. At the end of the experiment, the growth rate of the bones was determined. The growth rate of bones is calculated from the slope of a linear regression fit on the length measurements obtained from day 3 to 15. Units given can be converted to length, 40 units=1 mm.

[3] = system: fetal bone organ culture from wild type (normal) animals; details: wild type fetal bones; cited from earlier work
[4] = 125Iodine-labeled GH in blood after IP administration; type: in vivo, mice; details: 125Iodine-labeled GH IP, one hour after a pulse of unlabelled GH
From the text: To determine whether GH can enter the growth plate from the circulation, GH was labeled with ^125Iodine and administered to mice IP, one hour after a pulse of unlabelled GH. Blood samples were collected at several time points and analyzed on a protein gel.

[5] = Table 2, cGMP assay, compared to CNP
[6] = Table 3, cGMP values at 10^-6 M, compared to CNP (CNP 1-22 and CNP 5-22 = 100%)

| Substance | cGMP response as percent of CNP [1, 6] [%] | other results |
| --- | --- | --- |
| C F G L K L D R I G S A S G L G C (CFGLKLDRIGSASGLGC; peptide variant) [SEQ ID NO:10] | – | activity in cGMP assay (in words) [1]: increases activity; cGMP response as percent of CNP [1, 5]: 138.1%; activity in cGMP assay (in words) ([1]; listed as SEQ ID NO: 10): retains high activity; bone elongation / longitudinal growth in bone culture (in words) [2]: induced elongation of Ach369 femora even at a concentration similar to that of CNP |
| C H F G L K L D R I - - - - - - C (CHFGLKLDRIC; peptide variant) [SEQ ID NO:23] | – | cGMP response as percent of CNP [1, 5]: 3.8% |
| C H F G L K L D R I G A Q S - - C (CHFGLKLDRIGAQSC; peptide variant) [SEQ ID NO:13] | – | cGMP response as percent of CNP [1, 5]: 26.5% |
| C H F G L K L D R I G S - - - - C (CHFGLKLDRIGSC; peptide variant) [SEQ ID NO:20] | – | cGMP response as percent of CNP [1, 5]: 11.9% |
| C H F G L K L D R I G S M A - - C (CHFGLKLDRIGSMAC; peptide variant) [SEQ ID NO:12] | – | cGMP response as percent of CNP [1, 5]: 21.7% |
| C H F G L K L D R I G S M S - - C (CHFGLKLDRIGSMSC; peptide variant) [SEQ ID NO:11] | – | cGMP response as percent of CNP [1, 5]: 25.9% |
| C I G L K L D R I G S M S G L G C (CIGLKLDRIGSMSGLGC; peptide variant) [SEQ ID NO:28] | 13.899 | – |
| C L G L K L D R I G S M S G L G C (CLGLKLDRIGSMSGLGC; peptide variant) [SEQ ID NO:29] | 6.255 | – |
| C M G L K L D R I G S M S G L G C (CMGLKLDRIGSMSGLGC; peptide variant) [SEQ ID NO:30] | −1.341 | – |
| C V G L K L D R I G S M S G L G C (CVGLKLDRIGSMSGLGC; peptide variant) [SEQ ID NO:32] | 5.740 | – |
| C W G L K L D R I G S M S G L G C (CWGLKLDRIGSMSGLGC; peptide variant) [SEQ ID NO:31] | −10.834 | – |
| C-type natriuretic peptide [CNP] | 100 | induction of bone elongation (rank order) [3]: more than BNP and much more than ANP; Growth rate (days 0-3) ([2]; +/+ wild type (wt)): 0.25 mm/day; Growth rate (days 3-15) ([2]; +/+ wild type (wt)): 0.143 mm/day; Growth rate (days 0-3) ([2]; Ach/+ heterozygote): 0.228 mm/day; Growth rate (days 3-15) ([2]; Ach/+ heterozygote): 0.085 mm/day; Growth rate (days 0-3) ([2]; Ach/Ach homozygote): 0.177 mm/day; Growth rate (days 3-15) ([2]; Ach/Ach homozygote): 0.07 mm/day; bone elongation / longitudinal growth in bone culture (in words) [2]: increased the total longitudinal growth of femora; also recorded: increased in size at a rate higher than that of the untreated limbs |
| GH: growth hormone labeled with 125Iodine and administered to mice IP | – | labeling of blood samples on a protein gel over time [4]: increases in the first 2-3 hours, can still be observed at 6 hours and almost disappears at 24 hrs |

Further lines, with some results ahead:

| cGMP response as percent of CNP [1, 6] [%] | Substance | other results |
| --- | --- | --- |
| 9.450 | C F G L K L E R I G S M S G L G C (CFGLKLERIGSMSGLGC; peptide variant) [SEQ ID NO:35] | – |
| 7.228 | C F G L K L I R I G S M S G L G C (CFGLKLIRIGSMSGLGC; peptide variant) [SEQ ID NO:38] | – |
| 7.784 | C F G L K L M R I G S M S G L G C (CFGLKLMRIGSMSGLGC; peptide variant) [SEQ ID NO:39] | – |
| 17.235 | C F G L K L N R I G S M S G L G C (CFGLKLNRIGSMSGLGC; peptide variant) [SEQ ID NO:37] | – |
| −17.095 | C F G L K L Q R I G S M S G L G C (CFGLKLQRIGSMSGLGC; peptide variant) [SEQ ID NO:36] | – |
| 66.714 | C F G L K V D R I G S M S G L G C (CFGLKVDRIGSMSGLGC; peptide variant) [SEQ ID NO:47] | – |
| 29.744 | C F G L L L D R I G S M S G L G C (CFGLLLDRIGSMSGLGC; peptide variant) [SEQ ID NO:43] | – |
| 5.421 | C F G L M L D R I G S M S G L G C (CFGLMLDRIGSMSGLGC; peptide variant) [SEQ ID NO:44] | – |
| 64.212 | C F G V K L D R I G S M S G L G C (CFGVKLDRIGSMSGLGC; peptide variant) [SEQ ID NO:42] | – |
| 3.058 | C H G L K L D R I G S A S G L G C (CHGLKLDRIGSASGLGC; peptide variant) [SEQ ID NO:70] | – |
| 5.699 | C H G L K L D R I G S M S G L G C (CHGLKLDRIGSMSGLGC; peptide variant) [SEQ ID NO:33] | – |
| −9.108 | C T G L K L D R I G S A S G L G C (CTGLKLDRIGSASGLGC; peptide variant) [SEQ ID NO:71] | – |
| −6.903 | C T G L K L D R I G S M S G L G C (CTGLKLDRIGSMSGLGC; peptide variant) [SEQ ID NO:34] | – |

From patent publication US7276481B2, “Method and composition for treatment of skeletal dysplasias” (ProChon Biotech Ltd., priority 2001, dated 2007)
